Patent US20260242485A1 (LEPU BIOPHARMA, published 2026)

Legend:
[1] = target: T1, cynomolgus CD16 expressed on CHO-K1 cells (cynomolgus, UniProt Q8SPW2 17-254); test: flow cytometry, CHO-K1-cyno CD16 cells, Alexa Fluor 647 anti-human IgG Fc, geometric mean
T1 construct: whole, on cells; also called cyno CD16; CHO-K1-cynoCD16
Description: (§1) In order to evaluate the binding activity of the chimeric mAbs to human CD16A expressed on cells, cell-based binding assay was employed as followed. […] The antibody dilutions were incubated with 1×10⁵ indicated cells in the 96-well microplate for one hour at 4° C. The antibodies binding to the antigen on the cell surface were detected with PE fluorophore-conjugated anti-human IgG Fc secondary antibodies (ThermoFisher scientific, Cat. No. 12-4998-82) at a dilution rate of 1:1000. Cells were analyzed by flow cytometer LSRFortessa Cell Analyzer (BD Biosciences). Data were analyzed with Flowjo 10.0 software. The graph and statistics analysis were generated with four-parameter nonlinear regression curve fit in Graphpad Prism 9 software.
(§2) The assay was performed following the protocol described above. The antibodies binding to the antigen on the cell surface were detected with Alexa Fluor® 647 AffiniPure™ F(ab′)₂ fragment goat anti-human IgG Fcγ fragment specific secondary antibody (Jackson Immuno Research, Cat. No. 109-606-098) at a dilution rate of 1:2000.

[2] = target: T1, cynomolgus CD16 expressed on CHO-K1 …; test: flow cytometry, CHO-K1-cyno CD16 cells, geometric mean
Description: as §1
(§3) The assay was performed following the protocol described above.

[3] = target: T2, human CD16A-158V expressed on CHO-K1 cells (human, UniProt P08637 17-254); test: flow cytometry, CHO-K1-hCD16A-158V cells, Alexa Fluor 647 anti-human IgG Fc, geometric mean
T2 construct: whole, on cells; also called hCD16A-158V; CHO-K1-hCD16A-158V
Description: as §1, §2

[4] = target: T2, human CD16A-158V expressed on CHO-K1 …; test: flow cytometry, CHO-K1-hCD16A-158V cells, geometric mean
Description: as §1, §3

[5] = target: T3, human CD16A-158F expressed on CHO-K1 cells (human, UniProt P08637 17-254); test: flow cytometry, CHO-K1-hCD16A-158F cells, geometric mean
T3 construct: whole, on cells
Description: as §1, §3

[6] = target: T3, human CD16A-158F expressed on CHO-K1 …; test: flow cytometry, CHO-K1-hCD16A-158F cells, Alexa Fluor 647 anti-human IgG Fc, geometric mean
Description: as §1, §2

[7] = target: T4, human GPC3 on HepG2 cells (human, UniProt P51654 25-554); test: flow cytometry, HepG2 cells (GPC3 positive), geometric mean
T4 construct: whole, on cells; also called GPC3-positive HepG2 cells

[8] = target: T3, human CD16A-158F expressed on CHO-K1 …; test: flow cytometry, CHO-K1-hCD16A-158F cells, geometric mean; remark: listed apart in the source
[9] = target: T3, human CD16A-158F expressed on CHO-K1 …; test: as above; remark: listed apart in the source
Source text: (§4) The purpose of the assay was to evaluate the binding of BsAb to each of the hFcγRs.

[10] = target: T2, human CD16A-158V expressed on CHO-K1 …; test: flow cytometry, CHO-K1-hCD16A-158V cells, geometric mean; remark: listed apart in the source
Source text: as §4

T4 sequence (P51654 25-554 limits assumed): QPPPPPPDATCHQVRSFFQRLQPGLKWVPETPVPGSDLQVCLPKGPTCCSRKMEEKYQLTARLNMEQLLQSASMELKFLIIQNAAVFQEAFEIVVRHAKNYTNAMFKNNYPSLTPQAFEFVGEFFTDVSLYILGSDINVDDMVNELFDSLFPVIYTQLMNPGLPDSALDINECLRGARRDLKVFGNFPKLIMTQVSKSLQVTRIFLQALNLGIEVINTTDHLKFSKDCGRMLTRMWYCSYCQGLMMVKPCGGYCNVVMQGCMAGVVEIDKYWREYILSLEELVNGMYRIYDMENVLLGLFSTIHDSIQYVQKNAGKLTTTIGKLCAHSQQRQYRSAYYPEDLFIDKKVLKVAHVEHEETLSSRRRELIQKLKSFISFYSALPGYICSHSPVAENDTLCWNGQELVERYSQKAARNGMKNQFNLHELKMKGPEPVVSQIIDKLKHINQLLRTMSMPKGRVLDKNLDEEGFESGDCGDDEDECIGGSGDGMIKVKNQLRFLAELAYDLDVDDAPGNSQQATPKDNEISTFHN
T3 sequence (P08637 17-254): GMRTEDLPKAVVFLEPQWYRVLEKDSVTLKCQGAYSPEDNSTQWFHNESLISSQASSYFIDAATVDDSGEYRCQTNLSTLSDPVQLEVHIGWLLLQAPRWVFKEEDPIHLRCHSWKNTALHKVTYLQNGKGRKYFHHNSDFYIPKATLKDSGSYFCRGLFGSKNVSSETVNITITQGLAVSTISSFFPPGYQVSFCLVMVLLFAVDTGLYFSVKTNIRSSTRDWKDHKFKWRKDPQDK
T2 sequence (P08637 17-254 F176V): as the sequence (P08637 17-254) above, with F160V counted along it
T1 sequence (Q8SPW2 17-254): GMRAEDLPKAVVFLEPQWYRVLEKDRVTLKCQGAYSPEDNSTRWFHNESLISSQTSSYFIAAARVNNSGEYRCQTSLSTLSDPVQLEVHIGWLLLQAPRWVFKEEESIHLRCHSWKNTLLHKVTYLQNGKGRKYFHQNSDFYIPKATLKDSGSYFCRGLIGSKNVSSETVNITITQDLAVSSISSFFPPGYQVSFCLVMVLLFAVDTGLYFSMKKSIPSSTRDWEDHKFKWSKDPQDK

B1: 45H6E8-z21 (antibody, human IgG1, V domains shown)
VH: QVQLVQSGAEVKKPGASVKVSCKVSGYTLTDYYMQWVRQAPGKGLEWMGWIDPENGDTEYAPKFQGRVTMTADTSTDTAYMELSSLRSEDTAVYYCTTGGNYVDWGQGTTVTVSS
VL: DIQMTQSPSFLSASVGDRVTITCKASQNVGTAVAWYQQKPGKAPKLLIYSASNRYTGVPDRFSGSGSGTDFTLTISSLQPEDFATYFCQQYSSYPLLTFGQGTRLEIK
notes: Human IgG1 LALAPG constant region; also called HU-VH1-8 / HU-VL1-3
EC50 (read off the curve) [1]: ~1000 pM | EC50 (read off the curve) [2]: ~700 pM | EC50 (read off the curve) [3]: ~400 pM | EC50 (read off the curve) [4]: ~400 pM | EC50 (read off the curve) [5]: ~400 pM | EC50 (read off the curve) [6]: ~400 pM

B2: GPC3-hIgG1DE (antibody)
chain 1: not shown
chain 2: DIVMTQTPLSLSVTPGQPASISCRSSQSLVHSNGNTYLQWYLQKPGQSPQLLIYKVSNRFSGVPDRFSGSGSGTDFTLKISRVEAEDVGVYYCFQSIHVPYTFGGGTKLEIKRTVAAPSVFIFPPSDEQLKSGTASVVCLLNNFYPREAKVQWKVDNALQSGNSQESVTEQDSKDSTYSLSSTLTLSKADYEKHKVYACEVTHQGLSSPVTKSFNRGEC
EC50 (read off the curve) [7]: ~300 pM

B3: GPC3-hIgG1 (antibody)
heavy: not shown
light: DIVMTQTPLSLSVTPGQPASISCRSSQSLVHSNGNTYLQWYLQKPGQSPQLLIYKVSNRFSGVPDRFSGSGSGTDFTLKISRVEAEDVGVYYCFQSIHVPYTFGGGTKLEIKRTVAAPSVFIFPPSDEQLKSGTASVVCLLNNFYPREAKVQWKVDNALQSGNSQESVTEQDSKDSTYSLSSTLTLSKADYEKHKVYACEVTHQGLSSPVTKSFNRGEC
notes: also called GPC3-hIgG1 mAb with wild-type Fc region
binding result [8]: no binding (tested: 100 nM) | EC50 (read off the curve) [7]: ~300 pM

B4: CCR8-hIgG1 mAb (antibody)
VH: not shown
VL: DIVMTQSPLSLPVTPGEPASISCRSSKSLLHSNANTYLYWYLQKPGQSPQLLIYRMSNLASGVPDRFSGSGSGTAFTLKISRVEAEDVGVYYCMQHLEYPFTFGGGTKLEIKRTVAAPSVFIFPPSDEQLKSGTASVVCLLNNFYPREAKVQWKVDNALQSGNSQESVTEQDSKDSTYSLSSTLTLSKADYEKHKVYACEVTHQGLSSPVTKSFNRGEC
notes: Wildtype human IgG1; also called anti-hCCR8 monoclonal antibody with wildtype Fc hIgG1
EC50 [9]: 20000 pM | EC50 [10]: 5200 pM

B5: CCR8-45H6E8-hIgG1LALAPG (bispecific antibody)
heavy: EVQLVESGGGLVQPGGSLRLSCAASGFSFNTYVMNWVRQAPGKGLEWVARIRTKSNNYATFYVDSVKDRFTISRDDSKNSLYLQMNSLKTEDTAVYYCVSGTITRLGAGLDYWGQGTLVTVSSASTKGPSVFPLAPSSKSTSGGTAALGCLVKDYFPEPVTVSWNSGALTSGVHTFPAVLQSSGLYSLSSVVTVPSSSLGTQTYICNVNHKPSNTKVDKKVEPKSCDKTHTCPPCPAPEAAGGPSVFLFPPKPKDTLMISRTPEVTCVVVDVSHEDPEVKFNWYVDGVEVHNAKTKPREEQYNSTYRVVSVLTVLHQDWLNGKEYKCKVSNKALGAPIEKTISKAKGQPREPQVYTLPPSREEMTKNQVSLTCLVKGFYPSDIAVEWESNGQPENNYKTTPPVLDSDGSFFLYSKLTVDKSRWQQGNVFSCSVMHEALHNHYTQKSLSLSPGKGGGGSGGGGSGGGGSEVQLQQSGAELVRSGASVKLSCTASGFNIKDYYMQWVKQRPEQGLEWIGWIDPENGDTEYAPKFQGKATMTADTSSNTAYLQLSSLTSEDTAVYYCTTGGNYVDWGQGTTLTVSSGGGGSGGGGSGGGGSDIVMTQSQKFMSTSVGDRVSITCKASQNVGTAVAWYQQKPGQSPKLLIYSASNRYTGVPDRFTGSGSGTDFTLTISNMQSEDLADYFCQQYSSYPLLTFGAGTNLELK
light: DIVMTQSPLSLPVTPGEPASISCRSSKSLLHSNANTYLYWYLQKPGQSPQLLIYRMSNLASGVPDRFSGSGSGTAFTLKISRVEAEDVGVYYCMQHLEYPFTFGGGTKLEIKRTVAAPSVFIFPPSDEQLKSGTASVVCLLNNFYPREAKVQWKVDNALQSGNSQESVTEQDSKDSTYSLSSTLTLSKADYEKHKVYACEVTHQGLSSPVTKSFNRGEC
notes: to be checked; also called CCR8-45H6E8-hIgG1LALAPG BsAb; CCR8-45H6E8 LALAPG BsAb
EC50 [9]: 290 pM | EC50 [10]: 570 pM

B6: 45H6E8-z21p1 (antibody, V domains shown)
VH: QVQLVQSGAEVKKPGASVKVSCKVSGYTLTDYYMQWVRQAPGKGLEWMGWIDPEQGDTEYAPKFQGRVTMTADTSTDTAYMELSSLRSEDTAVYYCTTGGNYVDWGQGTTVTVSS
VL: DIQMTQSPSFLSASVGDRVTITCKASQNVGTAVAWYQQKPGKAPKLLIYSASNRYTGVPDRFSGSGSGTDFTLTISSLQPEDFATYFCQQYSSYPLLTFGQGTRLEIK
notes: PTM-removed version of z21
binding result [7]: no binding (tested: 100 nM)
